B1: DNA-binding protein HU 1 wild type, P08821 (protein)
chain: MNKTELINAVAEASELSKKDATKAVDSVFDTILDALKNGDKIQLIGFGNFEVRERSARKGRNPQTGEEIEIPASKVPAFKPGKALKDAVAGK
B2: DNA-binding protein HU wild type, P0A3H0 (protein)
chain: MNKTELINAVAETSGLSKKDATKAVDAVFDSITEALRKGDKVQLIGFGNFEVRERAARKGRNPQTGEEMEIPASKVPAFKPGKALKDAVK

Details: pH 7, Thermal, CD, Sodium phosphate 5 mM, NaCl 0.2 M, reversible: yes, whole UniProt chain shown

Protein | Tm (Bacillus subtilis (strain 168)) [°C] | Tm (Geobacillus stearothermophilus) [°C] | unfolding enthalpy (van 't Hoff) (Geobacillus stearothermophilus) [kcal/mol]
B1 | 48.6 | – | –
B2 | – | 63.9 | 72.8
